Paper PMC8857057

Biological target: Pab1 monomer (Saccharomyces cerevisiae, UniProt P04147 1-577)
Experiment: fluorescence anisotropy

Chain of Pab1 monomer (P04147 whole entry): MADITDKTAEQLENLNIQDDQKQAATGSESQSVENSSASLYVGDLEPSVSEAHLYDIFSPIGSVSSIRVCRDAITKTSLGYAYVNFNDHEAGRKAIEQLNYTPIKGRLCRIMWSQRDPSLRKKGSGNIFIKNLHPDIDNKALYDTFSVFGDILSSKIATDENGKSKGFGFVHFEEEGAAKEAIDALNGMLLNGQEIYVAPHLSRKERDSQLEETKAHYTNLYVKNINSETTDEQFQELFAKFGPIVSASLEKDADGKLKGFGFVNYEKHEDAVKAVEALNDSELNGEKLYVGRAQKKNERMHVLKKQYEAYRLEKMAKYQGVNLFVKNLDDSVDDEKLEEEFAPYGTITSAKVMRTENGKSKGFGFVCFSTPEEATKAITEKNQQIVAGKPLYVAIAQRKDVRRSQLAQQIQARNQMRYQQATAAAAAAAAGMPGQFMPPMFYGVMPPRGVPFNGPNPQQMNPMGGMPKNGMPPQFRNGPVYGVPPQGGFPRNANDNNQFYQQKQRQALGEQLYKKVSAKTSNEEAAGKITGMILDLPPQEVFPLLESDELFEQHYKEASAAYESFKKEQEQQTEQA

B1: A19 RNA (ssRNA)
RNA: AAAAAAAAAAAAAAAAAAA
binding result: binds
